Laboratory results reported in PMC4145800.

Target: T1, wild-type (polymerization-competent) yeast αβ-tubulin, P09733;P02557
T1 chain 1: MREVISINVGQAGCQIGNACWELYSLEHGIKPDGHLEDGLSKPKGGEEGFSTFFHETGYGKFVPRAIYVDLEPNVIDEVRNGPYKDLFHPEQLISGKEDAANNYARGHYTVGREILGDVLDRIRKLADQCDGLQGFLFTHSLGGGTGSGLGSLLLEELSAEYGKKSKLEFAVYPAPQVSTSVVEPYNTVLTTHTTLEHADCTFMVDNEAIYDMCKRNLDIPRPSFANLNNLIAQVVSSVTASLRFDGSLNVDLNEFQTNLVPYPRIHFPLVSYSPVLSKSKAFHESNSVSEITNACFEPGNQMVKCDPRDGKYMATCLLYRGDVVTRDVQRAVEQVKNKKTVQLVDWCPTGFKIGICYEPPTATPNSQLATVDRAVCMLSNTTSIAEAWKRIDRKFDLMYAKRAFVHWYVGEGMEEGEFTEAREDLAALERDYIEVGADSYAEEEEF
T1 chain 2: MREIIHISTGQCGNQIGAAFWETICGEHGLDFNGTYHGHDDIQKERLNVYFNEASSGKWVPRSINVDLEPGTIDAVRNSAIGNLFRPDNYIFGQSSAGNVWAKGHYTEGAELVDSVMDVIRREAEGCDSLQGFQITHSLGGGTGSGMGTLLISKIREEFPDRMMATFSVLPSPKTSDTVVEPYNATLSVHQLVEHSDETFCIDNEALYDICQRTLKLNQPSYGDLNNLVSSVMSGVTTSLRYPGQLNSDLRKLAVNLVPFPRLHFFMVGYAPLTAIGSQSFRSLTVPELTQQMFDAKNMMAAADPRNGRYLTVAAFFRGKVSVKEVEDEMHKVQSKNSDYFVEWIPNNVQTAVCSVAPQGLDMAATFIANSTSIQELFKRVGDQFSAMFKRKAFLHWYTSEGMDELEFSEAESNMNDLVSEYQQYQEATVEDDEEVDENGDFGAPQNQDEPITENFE
Assay: sedimentation velocity AUC
Settings: chain shown with the change; [TOG1-TOG2] = 1.7 µM; [αβ] = 0.35 µM

B1: TOG1-TOG2(1-560) of Stu2p, P46675 W341A (protein)
chain: MSGEEEVDYTTLPLEERLTYKLWKARLEAYKELNQLFRNSVGDISRDDNIQIYWRDPTLFAQYITDSNVVAQEQAIVALNSLIDAFASSSLKNAHNITLISTWTPLLVEKGLTSSRATTKTQSMSCILSLCGLDTSITQSVELVIPFFEKKLPKLIAAAANCVYELMAAFGLTNVNVQTFLPELLKHVPQLAGHGDRNVRSQTMNLIVEIYKVTGNNSDLLEEILFKKLKPIQVKDLHKLFAKVGDEPSSSKMLFEWEKRELEKKRSQEEEARKRKSILSNDEGEYQIDKDGDTLMGMETDMPPSKQQSGVQIDTFSMLPEETILDKLPKDFQERITSSKAKDRVEALEEFWDSVLSQTKKLKSTSQNYSNLLGIYGHIIQKDANIQAVALAAQSVELICDKLKTPGFSKDYVSLVFTPLLDRTKEKKPSVIEAIRKALLTICKYYDPLASSGRNEDMLKDILEHMKHKTPQIRMECTQLFNASMKEEKDGYSTLQRYLKDEVVPIVIQIVNDTQPAIRTIGFESFAILIKIFGMNTFVKTLEHLDNLKRKKIEETVKTL
**Q.** Which other: sedimentation coefficient of the TOG1-TOG2:αβ-tubulin complex (s20,w) does the source give for B1 here?
**A.** 7.1 S
